According to patent US20020127222A1 (VEGENICS, published 2002):

T1: VEGFR-3-Ig (extracellular domain of human VEGFR-3 fused to the Fc portion of human IgG1) (human, UniProt P35916 25-775)
T1 construct: extracellular domain; Expressed in 293T cells, captured on protein A Sepharose; not shown: Fc portion of human IgG1
T1 sequence (looked up): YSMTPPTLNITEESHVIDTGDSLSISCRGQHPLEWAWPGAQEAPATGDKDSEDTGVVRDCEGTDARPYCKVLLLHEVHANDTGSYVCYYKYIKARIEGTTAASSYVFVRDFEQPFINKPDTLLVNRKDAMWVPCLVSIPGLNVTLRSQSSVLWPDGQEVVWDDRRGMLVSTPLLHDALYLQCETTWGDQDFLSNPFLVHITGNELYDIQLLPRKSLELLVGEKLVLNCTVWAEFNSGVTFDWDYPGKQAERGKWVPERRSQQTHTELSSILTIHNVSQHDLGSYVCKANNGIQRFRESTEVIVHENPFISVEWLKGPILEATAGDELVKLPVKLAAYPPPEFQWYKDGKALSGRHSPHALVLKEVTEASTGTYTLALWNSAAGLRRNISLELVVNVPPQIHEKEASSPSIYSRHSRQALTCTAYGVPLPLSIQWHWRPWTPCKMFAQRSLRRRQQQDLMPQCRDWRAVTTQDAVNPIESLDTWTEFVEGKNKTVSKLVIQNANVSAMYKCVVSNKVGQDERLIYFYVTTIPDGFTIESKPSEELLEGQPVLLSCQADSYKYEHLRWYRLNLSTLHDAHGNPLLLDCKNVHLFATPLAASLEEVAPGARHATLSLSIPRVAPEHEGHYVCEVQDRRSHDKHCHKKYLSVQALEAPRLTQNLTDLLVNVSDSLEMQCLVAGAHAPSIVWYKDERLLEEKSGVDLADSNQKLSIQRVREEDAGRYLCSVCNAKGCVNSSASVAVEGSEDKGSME


Key:
[1] = target: chimeric receptor containing the extracellular domain of VEGFR-2, on Ba/F3 cells; test: cell-based or functional assay
[2] = target: T2, VEGFR-2-Ig (extracellular domain of human VEGFR-2 fused to the Fc portion of human IgG1) (human, UniProt P35968 20-764); test: precipitation of 35S-labeled ligand from conditioned medium by receptor-Ig on protein A Sepharose, SDS-PAGE
T2 construct: extracellular domain; Expressed in 293T cells, captured on protein A Sepharose; not shown: Fc portion of human IgG1
T2 sequence (P35968 20-764): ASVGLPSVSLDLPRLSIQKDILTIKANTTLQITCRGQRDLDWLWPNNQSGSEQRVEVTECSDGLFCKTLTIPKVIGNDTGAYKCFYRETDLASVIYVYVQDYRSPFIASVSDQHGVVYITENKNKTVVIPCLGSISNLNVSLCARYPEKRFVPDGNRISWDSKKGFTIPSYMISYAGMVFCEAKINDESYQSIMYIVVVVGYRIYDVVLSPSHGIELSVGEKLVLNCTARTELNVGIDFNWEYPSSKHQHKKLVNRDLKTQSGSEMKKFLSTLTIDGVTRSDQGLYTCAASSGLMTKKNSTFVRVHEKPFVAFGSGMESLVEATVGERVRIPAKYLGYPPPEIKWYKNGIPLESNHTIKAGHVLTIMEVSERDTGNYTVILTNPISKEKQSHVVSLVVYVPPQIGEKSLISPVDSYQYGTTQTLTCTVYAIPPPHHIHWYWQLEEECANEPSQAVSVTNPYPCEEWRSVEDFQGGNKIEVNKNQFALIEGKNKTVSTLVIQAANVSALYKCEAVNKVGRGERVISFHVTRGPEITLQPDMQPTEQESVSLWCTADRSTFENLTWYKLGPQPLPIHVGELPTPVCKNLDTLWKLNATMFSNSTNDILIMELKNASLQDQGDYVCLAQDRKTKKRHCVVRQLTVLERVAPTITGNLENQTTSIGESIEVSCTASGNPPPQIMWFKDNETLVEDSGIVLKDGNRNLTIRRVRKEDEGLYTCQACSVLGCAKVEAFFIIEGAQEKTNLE
Description: (§1) To further assess the interactions between VEGF-D and the VEGF receptors, VEGF-DΔNΔC was tested for its capacity to bind to soluble immunoglobulin fusion proteins comprising the extracellular domains of human VEGFR-1, human VEGFR-2 and human VEGFR-3. The corresponding fragment of VEGF-C, VEGF-CΔNΔC, was used for comparison. For binding experiments, 293T human embryonal kidney cells were transfected with plasmids encoding the soluble receptor-immunoglobulin fusion proteins VEGFR-1-Ig, VEGFR-2-Ig or VEGFR-3-Ig using the calcium-phosphate (Ca-phosphate) method. In these fusion proteins, the extracellular domain of the relevant VEGF receptor is fused to the Fc portion of human IgG₁. The cells were incubated for 24 hours after transfection, washed with Dulbecco's Modified Eagle's Medium (DMEM) containing 0.2% bovine serum albumin (BSA) and starved for 24 hours. Media were then collected and clarified by centrifugation, and fusion proteins were precipitated using protein A Sepharose beads. […] Metabolic labeling of 293-EBNA cells was carried out essentially as described (Joukov et al., 1997). The Sepharose beads were then washed twice with binding buffer (0.5% BSA, 0.02% Tween 20, 1 μg/ml heparin in phosphate buffered saline (PBS)) at 4° C. and once with PBS, boiled in Laemmli sample buffer, and proteins were then analyzed by SDS-PAGE.
(§2) In FIG. 3, precipitation of labeled VEGF₁₆₅, VEGF-CΔNΔC and VEGF-DΔNΔC by VEGFR-1-Ig, VEGFR-2-Ig and VEGFR-3-Ig was carried out as described above. The fusion proteins used for the precipitations are shown to the right. “Vector” denotes results of precipitations from medium derived from cells transfected with expression vector lacking sequence encoding the VEGFs. The molecular weight markers are indicated in kDa

[3] = target: T1, VEGFR-3-Ig (extracellular domain of …); test: as above
Description: as §1, §2

[4] = target: T3, VEGFR-1-Ig (extracellular domain of human VEGFR-1 fused to the Fc portion of human IgG1) (human, UniProt P17948 27-758); test: as above
T3 construct: extracellular domain; Expressed in 293T cells, captured on protein A Sepharose; not shown: Fc portion of human IgG1
T3 sequence (P17948 27-758): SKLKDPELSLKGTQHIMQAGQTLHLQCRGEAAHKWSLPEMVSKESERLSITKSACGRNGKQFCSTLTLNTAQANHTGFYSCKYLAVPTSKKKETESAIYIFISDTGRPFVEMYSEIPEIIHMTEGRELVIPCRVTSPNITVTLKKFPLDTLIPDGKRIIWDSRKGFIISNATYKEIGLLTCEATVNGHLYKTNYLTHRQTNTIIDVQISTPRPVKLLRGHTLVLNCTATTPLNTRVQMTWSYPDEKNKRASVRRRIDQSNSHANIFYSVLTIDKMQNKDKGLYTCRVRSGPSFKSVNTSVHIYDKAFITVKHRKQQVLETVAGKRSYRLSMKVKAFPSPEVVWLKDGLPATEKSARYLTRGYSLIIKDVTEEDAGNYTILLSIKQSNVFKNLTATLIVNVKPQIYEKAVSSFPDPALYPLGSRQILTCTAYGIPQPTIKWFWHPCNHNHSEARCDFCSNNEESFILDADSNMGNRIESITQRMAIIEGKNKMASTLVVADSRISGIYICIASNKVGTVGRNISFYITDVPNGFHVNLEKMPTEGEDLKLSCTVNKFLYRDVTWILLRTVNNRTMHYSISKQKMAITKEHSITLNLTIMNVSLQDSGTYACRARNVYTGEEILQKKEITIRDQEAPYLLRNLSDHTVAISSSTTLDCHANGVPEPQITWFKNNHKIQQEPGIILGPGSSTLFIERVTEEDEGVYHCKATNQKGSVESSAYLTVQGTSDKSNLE
Description: as §1, §2

[5] = target: the molecule itself; test: size exclusion chromatography and SDS-PAGE (self-association)

Molecule	VEGFR-2 binding activity (Ba/F3 cell bioassay) of size exclusion peak 1 (% of that in peak 2) [1]	binding result [2]	binding result [3]	binding result [4]	binding result [5]
VEGF-DΔNΔC non-covalent homodimer (size exclusion peak 2, 49 kDa) (from UniProt O43915 93-201) (ligand)	1	–	–	–	–
VEGF-DΔNΔC (human VEGF-D amino acid residues 93 to 201 tagged with the FLAG octapeptide adjacent to the N-terminus) (ligand, not shown: small tags and cut ends, purified from COS cells for the enzyme immunoassay; human VEGF-D?N?C) FYDIETLKVIDEEWQRTQCSPRETCVEVASELGKSTNTFFKPPCVNVFRCGGCCNEESLICMNTSTSYISKQLFEISVPLTSVPELVPVKVANHTGCKCLPTAPRHPYS	–	binds	binds	no binding	–
VEGF-DΔNΔC monomer (size exclusion peak 3, 25 kDa) (ligand, also called VEGF-D?N?C monomer; monomeric form of VEGF-D?N?C; not shown: FLAG octapeptide tag at the N-terminus) FYDIETLKVIDEEWQRTQCSPRETCVEVASELGKSTNTFFKPPCVNVFRCGGCCNEESLICMNTSTSYISKQLFEISVPLTSVPELVPVKVANHTGCKCLPTAPRHPYS	–	–	–	–	binds
human VEGF165 (ligand, UniProt P15692-4 27-191, looked up, 35S-labeled conditioned medium) APMAEGGGQNHHEVVKFMDVYQRSYCHPIETLVDIFQEYPDEIEYIFKPSCVPLMRCGGCCNDEGLECVPTEESNITMQIMRIKPHQGQHIGEMSFLQHNKCECRPKKDRARQENPCGPCSERRKHLFVQDPQTCKCSCKNTDSRCKARQLELNERTCRCDKPRR	–	–	no binding	binds	–
